Results as given in article PMC3816256, “Sgol2 provides a regulatory platform that coordinates essential cell cycle processes during meiosis I in oocytes” (eLife, 2013).
Substitutions are numbered along the chain they refer to. Names and notes keep the numbering of the source.

B1: MBP-Sgol2cc-Flag, wild type (mouse Sgol2 coiled coil region 31-117) (domain or fragment, UniProt Q7TSY8 31-117, looked up)
chain: SLASKIKAKILNNSSIFKISLKHNNRALARALSKEKENSRRITTEKMQLQKEVEKLNFENTFLRLKLNTLNKKLVEIESHVSNDLLT
notes: In the dimerization assays the second copy (bait) carried a His tag in place of Flag (MBP-Sgol2cc-His, pET28b backbone; Flag copy in pMAL-c2x); also called MBP-mSgol2cc-Flag; MBP-Sgol2cc-His; source: also His- and Flag-tagged copies co-expressed, in extract; not shown: MBP, N-terminal, kept; Flag, C-terminal, kept
B2: MBP-Sgol2cc-Flag N55I (domain or fragment, mouse, UniProt Q7TSY8 31-117, looked up)
chain: B1 chain with N25I
notes: In the dimerization assay the second copy (bait) carried a His tag in place of Flag and the same substitution; not shown: MBP, N-terminal, kept; Flag, C-terminal, kept
B3: MBP-Sgol2cc-Flag N54A (domain or fragment, mouse, UniProt Q7TSY8 31-117, looked up)
chain: B1 chain with N24A
notes: as for B2
B4: MBP-Sgol2cc-Flag E82A (domain or fragment, mouse, UniProt Q7TSY8 31-117, looked up)
chain: B1 chain with E52A
notes: as for B2
B5: MBP-Sgol2cc-Flag L51A (domain or fragment, mouse, UniProt Q7TSY8 31-117, looked up)
chain: B1 chain with L21A
notes: as for B2
B6: MBP-Sgol2cc-Flag E82K (domain or fragment, mouse, UniProt Q7TSY8 31-117, looked up)
chain: B1 chain with E52K
notes: as for B2
B7: MBP-Sgol2cc-Flag R56A (domain or fragment, mouse, UniProt Q7TSY8 31-117, looked up)
chain: B1 chain with R26A
notes: as for B2
B8: MBP-Sgol2cc-Flag L51A/N54A/R56A (3A) (domain or fragment, mouse, UniProt Q7TSY8 31-117, looked up)
chain: B1 chain with L21A, N24A, R26A
notes: In the dimerization assays the second copy (bait) carried a His tag in place of Flag and the same substitutions; also called 3A triple mutation; 3A mutant; source: also His- and Flag-tagged copies co-expressed, in extract; not shown: MBP, N-terminal, kept; Flag, C-terminal, kept

Target: the molecule itself
Test: pull-down; purified Flag-tagged MBP-Sgol2cc (31-117) pulled down by purified His-tagged MBP-Sgol2cc (31-117) with the same substitution; western blots

Binding result, binds:
B1
B2
B3
B4
B5
B6
B7

Target: the molecule itself
Test: pull-down; MBP-Sgol2cc-His and MBP-Sgol2cc-Flag co-expressed in E. coli; 10 mg of extract on Talon beads 2 hr at 4°C (50 mM sodium phosphate pH 7, 250 mM NaCl, 10% glycerol, 0.02% Triton X-100), washes with 23 mM imidazole; blots with anti-Flag and anti-His; the paper calls it co-immunoprecipitation

Binding result, binds:
B8
